According to article PMC12510318:

Key:
Assay in all cases: EMSA
Conditions in all cases: EMSA: 6 ng 32P-satBaMV riboprobe, 2 U RNasin, 15 ul CAPS buffer (pH and salt not given), 20 min on ice; 4-12% NuPAGE in MES buffer at 4 C
[1] = system: rFIB K256A (Nicotiana benthamiana)
[2] = system: rP20 WT (bamboo mosaic virus satellite RNA (satBaMV))
[3] = system: rFIB D227A (Nicotiana benthamiana)
[4] = system: rFIB triple mutant (Nicotiana benthamiana)
[5] = system: rFIB K134A (Nicotiana benthamiana)
[6] = system: rFIB (NbFIB2) WT (Nicotiana benthamiana)

**Q.** What does the source list for satBaMV riboprobe?
**A.** Kd [1]: 0.35 µM; Kd [2]: 0.032 µM; Kd [3]: 0.35 µM; Kd [4]: 1.23 µM; Kd [5]: 0.14 µM; Kd [6]: 0.05 µM
